Experimental data: PMC4398557, “Conserved Streptococcus pneumoniae Spirosomes Suggest a Single Type of Transformation Pilus in Competence” (PLoS Pathogens, 2015)

B1: bifunctional acetaldehyde-alcohol dehydrogenase AdhE (Streptococcus pneumoniae), native spirosomes (enzyme)
chain: MKAMEENMADKKTVTPEEKKLVAEKHVDELVQKALVALEEMRKLNQEQVDYIVAKASVAALDAHGELALHAFEETGRGVFEDKATKNLFACEHVVNNMRHTKTVGVIEEDDVTGLTLIAEPVGVVCGITPTTNPTSTAIFKSLISLKTRNPIVFAFHPSAQESSAHAARIVRDAAIAAGAPENCVQWITQPSMEATSALMNHEGVATILATGGNAMVKAAYSCGKPALGVGAGNVPAYVEKSANIRQAAHDIVMSKSFDNGMVCASEQAVIIDKEIYDEFVAEFKSYHTYFVNKKEKALLEEFCFGVKANSKNCAGAKLNADIVGKPATWIAEQAGFTVPEGTNILAAECKEVGENEPLTREKLSPVIAVLKSESREDGITKARQMVEFNGLGHSAAIHTADEELTKEFGKAVKAIRVICNSPSTFGGIGDVYNAFLPSLTLGCGSYGRNSVGDNVSAINLLNIKKVGRRRNNMQWMKLPSKTYFERDSIQYLQKCRDVERVMIVTDHAMVELGFLDRIIEQLDLRRNKVVYQIFADVEPDPDITTVNRGTEIMRAFKPDTIIALGGGSPMDAAKVMWLFYEQPEVDFRDLVQKFMDIRKRAFKFPLLGKKTKFIAIPTTSGTGSEVTPFAVISDKANNRKYPIADYSLTPTVAIVDPALVLTVPGFVAADTGMDVLTHATEAYVSQMASDYTDGLALQAIKLVFENLESSVKNADFHSREKMHNASTIAGMAFANAFLGISHSMAHKIGAQFHTIHGRTNAILLPYVIRYNGTRPAKTATWPKYNYYRADEKYQDIARMLGLPASTPEEGVESYAKAVYELGERIGIQMNFRDQGIDEKEWKEHSRELAFLAYEDQCSPANPRLPMVDHMQEIIEDAYYGYKERPGRRK
notes: also called spirosin; 'plaited' filaments
B2: AdhE^S.pneumoniae, C-terminally hexahistidine-tagged, expressed in E. coli (enzyme)
chain: MKAMEENMADKKTVTPEEKKLVAEKHVDELVQKALVALEEMRKLNQEQVDYIVAKASVAALDAHGELALHAFEETGRGVFEDKATKNLFACEHVVNNMRHTKTVGVIEEDDVTGLTLIAEPVGVVCGITPTTNPTSTAIFKSLISLKTRNPIVFAFHPSAQESSAHAARIVRDAAIAAGAPENCVQWITQPSMEATSALMNHEGVATILATGGNAMVKAAYSCGKPALGVGAGNVPAYVEKSANIRQAAHDIVMSKSFDNGMVCASEQAVIIDKEIYDEFVAEFKSYHTYFVNKKEKALLEEFCFGVKANSKNCAGAKLNADIVGKPATWIAEQAGFTVPEGTNILAAECKEVGENEPLTREKLSPVIAVLKSESREDGITKARQMVEFNGLGHSAAIHTADEELTKEFGKAVKAIRVICNSPSTFGGIGDVYNAFLPSLTLGCGSYGRNSVGDNVSAINLLNIKKVGRRRNNMQWMKLPSKTYFERDSIQYLQKCRDVERVMIVTDHAMVELGFLDRIIEQLDLRRNKVVYQIFADVEPDPDITTVNRGTEIMRAFKPDTIIALGGGSPMDAAKVMWLFYEQPEVDFRDLVQKFMDIRKRAFKFPLLGKKTKFIAIPTTSGTGSEVTPFAVISDKANNRKYPIADYSLTPTVAIVDPALVLTVPGFVAADTGMDVLTHATEAYVSQMASDYTDGLALQAIKLVFENLESSVKNADFHSREKMHNASTIAGMAFANAFLGISHSMAHKIGAQFHTIHGRTNAILLPYVIRYNGTRPAKTATWPKYNYYRADEKYQDIARMLGLPASTPEEGVESYAKAVYELGERIGIQMNFRDQGIDEKEWKEHSRELAFLAYEDQCSPANPRLPMVDHMQEIIEDAYYGYKERPGRRK
notes: not shown: His6, C-terminal, kept

How the values were obtained:
[1] = biological target: the molecule itself; experiment: SEC + other: negative-stain electron microscopy
[2] = biological target: the molecule itself; experiment: negative-stain electron microscopy; Talon eluate (TBS, 140 mM imidazole) of recombinant His-tagged protein applied at once to carbon grids, 2% uranyl acetate

Row | Protein | binding result [1] | binding result [2]
1 | B1 | binds | –
2 | B2 | – | binds
